Results: paper PMC5344980, “PARP1 promotes gene expression at the post-transcriptional level by modulating the RNA-binding protein HuR”

Experiments:
[1] = target: T1, GST-HuR (human? (species ; plasmid …, UniProt Q15717 1-326); assay: EMSA; no PARP1; Kd value only in figure; 3 mM MgCl2, 40 mM KCl, 5% glycerol, 2 mM DTT, 2 ug tRNA, 20 uM (so in the source) 5'-biotin RNA, 40 min at room temperature; 6% native acrylamide gel; protein 100-160; conditions: protein: recombinant; tags: GST; label: 5' biotin
[2] = target: T1, GST-HuR; assay: EMSA; with PARP1 + PJ34; enhancement abolished; 3 mM MgCl2, 40 mM KCl, 5% glycerol, 2 mM DTT, 2 ug tRNA, 20 uM (so in the source) 5'-biotin RNA, 40 min at room temperature; 6% native acrylamide gel; protein 100-160; conditions: protein: recombinant; tags: GST; label: 5' biotin
[3] = target: T1, GST-HuR; assay: EMSA; no PARP1; 3 mM MgCl2, 40 mM KCl, 5% glycerol, 2 mM DTT, 2 ug tRNA, 20 uM (so in the source) 5'-biotin RNA, 40 min at room temperature; 6% native acrylamide gel; protein 100-160; conditions: protein: recombinant; tags: GST; label: 5' biotin
[4] = target: T1, GST-HuR; assay: EMSA; no PARP1; several shifted bands; 3 mM MgCl2, 40 mM KCl, 5% glycerol, 2 mM DTT, 2 ug tRNA, 20 uM (so in the source) 5'-biotin RNA, 40 min at room temperature; 6% native acrylamide gel; protein 100-160; conditions: protein: recombinant; tags: GST; label: 5' biotin
[5] = target: PARP1 (UniProt P09874 2-1014); assay: EMSA; PARylation buffer, titrated sonicated DNA; no shifted bands; 3 mM MgCl2, 40 mM KCl, 5% glycerol, 2 mM DTT, 2 ug tRNA, 20 uM (so in the source) 5'-biotin RNA, 40 min at room temperature; 6% native acrylamide gel; protein 100-160; conditions: protein: recombinant; label: 5' biotin
PARP1, sequence (P09874 2-1014): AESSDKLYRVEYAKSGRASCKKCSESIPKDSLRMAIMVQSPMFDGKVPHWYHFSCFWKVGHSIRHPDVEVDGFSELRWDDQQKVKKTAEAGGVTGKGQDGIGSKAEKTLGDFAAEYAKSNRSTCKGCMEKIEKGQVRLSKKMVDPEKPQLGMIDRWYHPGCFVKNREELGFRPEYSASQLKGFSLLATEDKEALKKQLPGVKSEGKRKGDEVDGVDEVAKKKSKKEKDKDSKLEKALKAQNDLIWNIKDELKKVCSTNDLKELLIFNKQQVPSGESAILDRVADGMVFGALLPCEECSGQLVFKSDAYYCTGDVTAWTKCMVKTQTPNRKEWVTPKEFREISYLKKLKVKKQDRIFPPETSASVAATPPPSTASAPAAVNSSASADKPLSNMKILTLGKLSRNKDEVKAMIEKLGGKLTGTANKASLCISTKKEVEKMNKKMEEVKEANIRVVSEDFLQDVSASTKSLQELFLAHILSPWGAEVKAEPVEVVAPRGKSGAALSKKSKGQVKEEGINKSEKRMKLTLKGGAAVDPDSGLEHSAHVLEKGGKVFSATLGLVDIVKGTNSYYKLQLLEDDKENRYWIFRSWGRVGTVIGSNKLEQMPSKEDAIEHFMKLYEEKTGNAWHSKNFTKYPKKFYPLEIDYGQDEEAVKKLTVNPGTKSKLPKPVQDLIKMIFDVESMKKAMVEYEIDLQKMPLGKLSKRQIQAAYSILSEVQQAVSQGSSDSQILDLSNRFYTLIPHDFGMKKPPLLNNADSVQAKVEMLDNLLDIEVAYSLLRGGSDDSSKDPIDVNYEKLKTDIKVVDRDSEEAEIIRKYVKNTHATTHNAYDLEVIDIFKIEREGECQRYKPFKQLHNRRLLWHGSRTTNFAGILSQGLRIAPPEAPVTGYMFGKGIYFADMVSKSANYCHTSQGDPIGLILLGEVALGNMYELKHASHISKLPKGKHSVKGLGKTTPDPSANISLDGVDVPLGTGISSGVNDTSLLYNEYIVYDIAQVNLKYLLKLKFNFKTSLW

T1 sequence (Q15717 whole entry): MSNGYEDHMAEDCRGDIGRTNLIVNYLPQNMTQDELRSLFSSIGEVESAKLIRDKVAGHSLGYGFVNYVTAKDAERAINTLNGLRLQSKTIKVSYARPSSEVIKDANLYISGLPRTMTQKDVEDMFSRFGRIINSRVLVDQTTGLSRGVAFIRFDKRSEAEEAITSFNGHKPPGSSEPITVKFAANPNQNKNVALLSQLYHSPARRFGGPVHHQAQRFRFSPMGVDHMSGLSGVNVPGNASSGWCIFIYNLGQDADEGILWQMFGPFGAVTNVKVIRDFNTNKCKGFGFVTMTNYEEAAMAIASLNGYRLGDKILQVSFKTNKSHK

Question: Does AGUUCACUUAUUUAUUUAUCUAUGU (ssRNA) [Cxcl2-ARE1 RNA oligo] bind [1]?
Answer: Result: binds

Question: Does CUAUGUAUUUAUUUAUUUAUUAAUU (ssRNA) [Cxcl2-ARE2 RNA oligo] bind [2]?
Answer: Result: binds

Question: Does GUGGACACAUUUAUUUAUUCAUGUA (ssRNA) [Cxcl2-ARE3 RNA oligo] bind [3]?
Answer: Result: no binding

Question: What does the source list for AUUUAUUUAUUUAUUUAUUUAUUUA (ssRNA) [AU-rich RNA oligo (tandem ARE)]?
Answer: binding result [4]: binds; binding result [5]: no binding
